Measured values: patent US20230272029A1, “CO-AGONISTS AT GLP-1 AND GIP RECEPTORS SUITABLE FOR ORAL DELIVERY” (Novo Nordisk A/S, priority 2020, published 2023)
Starred links: 1 amine or outer side, 2 acyl side, 3 side chain; linkers in the order of their positions; H or OH if unused. Non-standard residues stand in square brackets, D forms with d. Groups on a side chain read outwards from the residue. No end group written: not given here. *: point of attachment. C18 diacid = O=C(O)CCCCCCCCCCCCCCCCC(=O)*; γGlu = O=C(O)[C@H](CCC(=O)[*:2])N[*:1]; εLys = N[C@@H](CCCCN[*:1])C(=O)[*:2]; Aib = CC(C)(N)C(=O)O

How the values were obtained:
human GLP-1 receptor = human GLP-1 receptor (human, UniProt P43220 24-463); assay: cell-based or functional assay
human GIP receptor = biological target: T1, human GIP receptor (human, UniProt P48546 22-466); assay: cell-based or functional assay
T1 sequence (looked up): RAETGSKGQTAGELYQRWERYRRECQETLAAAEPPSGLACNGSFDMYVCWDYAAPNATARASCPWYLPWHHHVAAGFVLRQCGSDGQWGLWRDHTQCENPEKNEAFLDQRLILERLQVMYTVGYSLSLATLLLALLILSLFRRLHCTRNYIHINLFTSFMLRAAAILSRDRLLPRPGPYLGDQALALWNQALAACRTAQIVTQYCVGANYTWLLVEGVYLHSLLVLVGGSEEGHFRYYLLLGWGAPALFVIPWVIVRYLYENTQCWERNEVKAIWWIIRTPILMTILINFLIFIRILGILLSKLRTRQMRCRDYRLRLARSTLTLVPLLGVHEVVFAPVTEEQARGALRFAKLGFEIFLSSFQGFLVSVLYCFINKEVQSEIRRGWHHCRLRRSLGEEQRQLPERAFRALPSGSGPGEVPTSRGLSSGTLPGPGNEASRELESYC

B1: Compound No. 26 (peptide)
peptide: Y[Aib]EGTFTSDYSILLEK([εLys-εLys-γGlu-C18 diacid])QAAHEFINWLLAGGPSSGAPPPS-OH
modifications: N-terminus assumed
SMILES: CC[C@H](C)[C@H](NC(=O)[C@H](Cc1ccccc1)NC(=O)[C@H](CCC(=O)O)NC(=O)[C@H](Cc1c[nH]cn1)NC(=O)[C@H](C)NC(=O)[C@H](C)NC(=O)[C@H](CCC(N)=O)NC(=O)[C@H](CCCCNC(=O)[C@@H](N)CCCCNC(=O)[C@@H](N)CCCCNC(=O)CC[C@H](NC(=O)CCCCCCCCCCCCCCCCC(=O)O)C(=O)O)NC(=O)[C@H](CCC(=O)O)NC(=O)[C@H](CC(C)C)NC(=O)[C@H](CC(C)C)NC(=O)[C@@H](NC(=O)[C@H](CO)NC(=O)[C@H](Cc1ccc(O)cc1)NC(=O)[C@H](CC(=O)O)NC(=O)[C@H](CO)NC(=O)[C@@H](NC(=O)[C@H](Cc1ccccc1)NC(=O)[C@@H](NC(=O)CNC(=O)[C@H](CCC(=O)O)NC(=O)C(C)(C)NC(=O)[C@@H](N)Cc1ccc(O)cc1)[C@@H](C)O)[C@@H](C)O)[C@@H](C)CC)C(=O)N[C@@H](CC(N)=O)C(=O)N[C@@H](Cc1c[nH]c2ccccc12)C(=O)N[C@@H](CC(C)C)C(=O)N[C@@H](CC(C)C)C(=O)N[C@@H](C)C(=O)NCC(=O)NCC(=O)N1CCC[C@H]1C(=O)N[C@@H](CO)C(=O)N[C@@H](CO)C(=O)NCC(=O)N[C@@H](C)C(=O)N1CCC[C@H]1C(=O)N1CCC[C@H]1C(=O)N1CCC[C@H]1C(=O)N[C@@H](CO)C(=O)O
hGLP-1R, CRE Luc 0% HSA EC50 (pM) (human GLP-1 receptor): 7.4 pM
hGLP-1R, CRE Luc 1% HSA EC50 (pM) (human GLP-1 receptor): 595 pM
hGIPR, CRE Luc 0% HSA EC50 (pM) (human GIP receptor): 4.9 pM
hGIPR, CRE Luc 1% HSA EC50 (pM) (human GIP receptor): 153 pM

B2: Compound No. 39 (peptide)
peptide: Y[Aib]EGTFTSDYSILLEEQAARK([εLys-εLys-γGlu-C18 diacid])FINWLLAGGPSSGAPPPS-OH
modifications: N-terminus assumed
SMILES: CC[C@H](C)[C@H](NC(=O)[C@H](Cc1ccccc1)NC(=O)[C@H](CCCCNC(=O)[C@@H](N)CCCCNC(=O)[C@@H](N)CCCCNC(=O)CC[C@H](NC(=O)CCCCCCCCCCCCCCCCC(=O)O)C(=O)O)NC(=O)[C@H](CCCNC(=N)N)NC(=O)[C@H](C)NC(=O)[C@H](C)NC(=O)[C@H](CCC(N)=O)NC(=O)[C@H](CCC(=O)O)NC(=O)[C@H](CCC(=O)O)NC(=O)[C@H](CC(C)C)NC(=O)[C@H](CC(C)C)NC(=O)[C@@H](NC(=O)[C@H](CO)NC(=O)[C@H](Cc1ccc(O)cc1)NC(=O)[C@H](CC(=O)O)NC(=O)[C@H](CO)NC(=O)[C@@H](NC(=O)[C@H](Cc1ccccc1)NC(=O)[C@@H](NC(=O)CNC(=O)[C@H](CCC(=O)O)NC(=O)C(C)(C)NC(=O)[C@@H](N)Cc1ccc(O)cc1)[C@@H](C)O)[C@@H](C)O)[C@@H](C)CC)C(=O)N[C@@H](CC(N)=O)C(=O)N[C@@H](Cc1c[nH]c2ccccc12)C(=O)N[C@@H](CC(C)C)C(=O)N[C@@H](CC(C)C)C(=O)N[C@@H](C)C(=O)NCC(=O)NCC(=O)N1CCC[C@H]1C(=O)N[C@@H](CO)C(=O)N[C@@H](CO)C(=O)NCC(=O)N[C@@H](C)C(=O)N1CCC[C@H]1C(=O)N1CCC[C@H]1C(=O)N1CCC[C@H]1C(=O)N[C@@H](CO)C(=O)O
hGLP-1R, CRE Luc 0% HSA EC50 (pM) (human GLP-1 receptor): 8.2 pM
hGLP-1R, CRE Luc 1% HSA EC50 (pM) (human GLP-1 receptor): 135 pM
hGIPR, CRE Luc 0% HSA EC50 (pM) (human GIP receptor): 28.4 pM
hGIPR, CRE Luc 1% HSA EC50 (pM) (human GIP receptor): 365 pM
